B1: Coiled-coil domain-containing protein 158 (Homo sapiens), Q5M9N0 (parent)
chain: MESKAWESNNEDLLSSSGVTSNGGSSSSFFVSSIRGTIIENTSSAGTLTQVPFFPKYEVELDSPRKIIPSPGKEHFERVLEEYSHQVKDLQRRLNESNELHEKQKFYLRQSVIDLQTKLQEMQMERDAMADIRRRESQSQEDLRNQLQNTVHELEAAKCLKEDMLKDSNTQIEQLRKMMLSHEGVLQEIRSILVDFEEASGKKICEHDSMSTLHFRSLGSAISKILRELDTEISYLKGRIFPVEDQLEALKSESQNKIELLLQQHQDRIEQLISEHEVEITGLTEKASSARSQANSIQSQMEIIQEQARNQNSMYMRQLSDLESTVSQLRSELREAKRMYEDKTEELEKQLVLANSELTEARTERDQFSQESGNLDDQLQKLLADLHKREKELSLEKEQNKRLWDRDTGNSITIDHLRRELDNRNMEVQRLEALLKALKSECQGQMERQMAAIQGKNESLEKVSSLTAQLESTKEMLRKVVEELTAKKMTLESSERTISDLTTSLQEKERAIEATNAEITKLRSRVDLKLQELQHLKNEGDHLRNVQTECEALKLQMTEKDKVIEILRQQIENMTQLVGQHGRTAGAMQVEKAQLEKEINDRRMELKELKILKDKKDAKIRELEARVSDLELEKVKLVNAGSERLRAVKDIKQERDQLLNEVKTSRSELNNLSEEYEVLKRNFRNKSEEMEMTTNKLKMQLKSAQSELEQTRNTLKSMEGSDGHAMKVAMGMQKQITAKRGQIDALQSKIQFLEEAMTNANKEKHFLKEEKSKLSQELSTVATEKNKMAGELEVLRSQERRLKEKVTNMEVALDKASLQFAECQDIIQRQEQESVRLKLQHTLDIKELQGPGYTSNSSLKPRLLQPASVTRSHSNVPSSQSTASFLSHHSTKANTLKEDPTRDLKQLLQELRSVINEEPAVSLSKTEEDGRTSLGALEDRVRDCITESSLRSDMCHRSNNSLRDSTEGSKSSETLSREPVTLHAGDREDPSGCFTFTSAASPSVKNSASRSFNSSPKKSPVHSLLTSSVEGSIGSTSQYRSAKPIHSSDSVKDSQSPPIETTGKTCRKLQNRLESLQTLVEDLQLKNQAMSSMIRNQEKRIQKVKDQEKMLLK
partner: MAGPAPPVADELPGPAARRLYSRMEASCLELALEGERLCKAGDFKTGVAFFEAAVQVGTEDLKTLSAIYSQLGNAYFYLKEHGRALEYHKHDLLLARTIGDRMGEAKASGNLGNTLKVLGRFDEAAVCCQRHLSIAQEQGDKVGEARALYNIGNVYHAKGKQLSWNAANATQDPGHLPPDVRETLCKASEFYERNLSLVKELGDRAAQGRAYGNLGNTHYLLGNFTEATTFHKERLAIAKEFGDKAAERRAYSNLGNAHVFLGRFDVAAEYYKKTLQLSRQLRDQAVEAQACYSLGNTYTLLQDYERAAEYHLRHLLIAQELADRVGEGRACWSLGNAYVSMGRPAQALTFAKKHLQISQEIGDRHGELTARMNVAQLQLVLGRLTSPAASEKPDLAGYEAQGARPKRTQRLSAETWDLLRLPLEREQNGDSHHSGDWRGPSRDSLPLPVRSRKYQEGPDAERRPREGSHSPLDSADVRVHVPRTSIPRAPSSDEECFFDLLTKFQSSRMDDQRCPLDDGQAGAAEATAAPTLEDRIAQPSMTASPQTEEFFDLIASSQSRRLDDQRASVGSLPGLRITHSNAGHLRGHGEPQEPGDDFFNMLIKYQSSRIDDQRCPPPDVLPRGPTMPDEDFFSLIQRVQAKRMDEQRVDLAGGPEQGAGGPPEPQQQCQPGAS
B2: E3 ubiquitin-protein ligase LNX (Homo sapiens), Q8TBB1 (parent)
chain: MNQPESANDPEPLCAVCGQAHSLEENHFYSYPEEVDDDLICHICLQALLDPLDTPCGHTYCTLCLTNFLVEKDFCPMDRKPLVLQHCKKSSILVNKLLNKLLVTCPFREHCTQVLQRCDLEHHFQTSCKGASHYGLTKDRKRRSQDGCPDGCASLTATAPSPEVSAAATISLMTDEPGLDNPAYVSSAEDGQPAISPVDSGRSNRTRARPFERSTIRSRSFKKINRALSVLRRTKSGSAVANHADQGRENSENTTAPEVFPRLYHLIPDGEITSIKINRVDPSESLSIRLVGGSETPLVHIIIQHIYRDGVIARDGRLLPGDIILKVNGMDISNVPHNYAVRLLRQPCQVLWLTVMREQKFRSRNNGQAPDAYRPRDDSFHVILNKSSPEEQLGIKLVRKVDEPGVFIFNVLDGGVAYRHGQLEENDRVLAINGHDLRYGSPESAAHLIQASERRVHLVVSRQVRQRSPDIFQEAGWNSNGSWSPGPGERSNTPKPLHPTITCHEKVVNIQKDPGESLGMTVAGGASHREWDLPIYVISVEPGGVISRDGRIKTGDILLNVDGVELTEVSRSEAVALLKRTSSSIVLKALEVKEYEPQEDCSSPAALDSNHNMAPPSDWSPSWVMWLELPRCLYNCKDIVLRRNTAGSLGFCIVGGYEEYNGNKPFFIKSIVEGTPAYNDGRIRCGDILLAVNGRSTSGMIHACLARLLKELKGRITLTIVSWPGTFL
partner: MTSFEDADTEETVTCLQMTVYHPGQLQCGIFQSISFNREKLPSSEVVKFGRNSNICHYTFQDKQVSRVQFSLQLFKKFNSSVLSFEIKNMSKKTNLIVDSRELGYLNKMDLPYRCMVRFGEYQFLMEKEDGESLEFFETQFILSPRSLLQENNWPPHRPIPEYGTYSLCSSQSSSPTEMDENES
B3: E3 ubiquitin-protein ligase LNX (Homo sapiens), Q8TBB1 (parent)
chain: B2 chain
partner: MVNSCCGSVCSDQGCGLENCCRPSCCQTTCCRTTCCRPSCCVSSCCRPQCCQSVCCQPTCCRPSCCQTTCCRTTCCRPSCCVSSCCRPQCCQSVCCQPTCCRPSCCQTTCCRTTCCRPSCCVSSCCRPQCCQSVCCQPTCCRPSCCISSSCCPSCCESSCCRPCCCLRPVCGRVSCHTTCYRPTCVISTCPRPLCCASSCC
B4: Centrosomal protein POC5 (Homo sapiens), Q8NA72 (parent)
chain: MSSDEEKYSLPVVQNDSSRGSSVSSNLQEEYEELLHYAIVTPNIEPCASQSSHPKGELVPDVRISTIHDILHSQGNNSEVRETAIEVGKGCDFHISSHSKTDESSPVLSPRKPSHPVMDFFSSHLLADSSSPATNSSHTDAHEILVSDFLVSDENLQKMENVLDLWSSGLKTNIISELSKWRLNFIDWHRMEMRKEKEKHAAHLKQLCNQINELKELQKTFEISIGRKDEVISSLSHAIGKQKEKIELMRTFFHWRIGHVRARQDVYEGKLADQYYQRTLLKKVWKVWRSVVQKQWKDVVERACQARAEEVCIQISNDYEAKVAMLSGALENAKAEIQRMQHEKEHFEDSMKKAFMRGVCALNLEAMTIFQNRNDAGIDSTNNKKEEYGPGVQGKEHSAHLDPSAPPMPLPVTSPLLPSPPAAVGGASATAVPSAASMTSTRAASASSVHVPVSALGAGSAATAASEEMYVPRVVTSAQQKAGRTITARITGRCDFASKNRISSSLAIMGVSPPMSSVVVEKHHPVTVQTIPQATAAKYPRTIHPESSTSASRSLGTRSAHTQSLTSVHSIKVVD
partner: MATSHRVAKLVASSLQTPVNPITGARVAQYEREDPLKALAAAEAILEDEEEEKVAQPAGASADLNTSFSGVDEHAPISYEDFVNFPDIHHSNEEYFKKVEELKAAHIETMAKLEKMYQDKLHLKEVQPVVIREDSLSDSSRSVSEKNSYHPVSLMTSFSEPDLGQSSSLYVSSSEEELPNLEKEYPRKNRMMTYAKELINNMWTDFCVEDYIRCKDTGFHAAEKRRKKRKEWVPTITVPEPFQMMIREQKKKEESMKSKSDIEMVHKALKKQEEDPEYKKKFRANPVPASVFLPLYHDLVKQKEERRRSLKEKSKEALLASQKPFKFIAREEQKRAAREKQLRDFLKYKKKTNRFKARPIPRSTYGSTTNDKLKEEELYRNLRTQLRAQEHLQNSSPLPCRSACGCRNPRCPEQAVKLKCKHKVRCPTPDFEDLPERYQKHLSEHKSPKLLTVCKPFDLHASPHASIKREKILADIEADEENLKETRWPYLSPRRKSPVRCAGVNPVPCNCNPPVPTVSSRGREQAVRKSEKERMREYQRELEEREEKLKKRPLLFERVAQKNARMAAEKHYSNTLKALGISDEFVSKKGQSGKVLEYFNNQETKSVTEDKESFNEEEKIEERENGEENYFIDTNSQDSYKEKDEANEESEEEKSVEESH

Variants of: B1
Conditions: with gpsm1_human GPSM1, Q86YR5

effect of a mutation on the interaction	Variant
with no effect	R78H

Variants of: B2
Conditions: with tifa_human TIFA

effect of a mutation on the interaction	Variant
disrupting interaction strength	E295K

Variants of: B3
Conditions: with kr412_human KRTAP4-12, Q9BQ66

effect of a mutation on the interaction	Variant
disrupting interaction strength	E295K

Variants of: B4
Conditions: with FAM161A

effect of a mutation on the interaction	Variant
with no effect	MSSDEEKYSLPVVQNDSSRGSSVSSNLQEEYEELLHYAIVTPNIEPCASQSSHPKGELVPDVRISTIHDILHSQGNNSEVRETAIEVGKGCDFHISSHSKTDESSPVLSPRKPSHPVMDFFSSHLLADSSSPATNSSHTDAHEILVSDFLVSDENLQKMENVLDLWSSGLKTNIISELSKWRLNFIDWHRMEMRKEKEKHAAHLKQLCNQINELKELQKTFEISIGRKDEVISSLSHAIGKQKEKIELMRTFFHWRIGHVRARQDVYEGKLADQYYQRTLLKKVWKVWRSVVQKQWKDVVERACQARAEEVCIQISNDYEAKVAMLSGALENAKAEIQRMQHEKEHFEDSMKKAFMRGVCALNLEAMTIFQNRNDAGIDSTNNKKEEYGPGVQGKEHSAHLDPSAPPMPLPVTSPLLPSPPAAVGGASATAVPSAASMTSTRAASASSVHVPVSALGAGSAATAASEETYVPRVVTSAQQKAGRTITARITGRCDFASKNRISSSLAIMGVSPPMSSVVVEKHHPVTVQTIPQATAAKYPRTIHPESSTSASRSLGTRSAHTQSLTSVHSIKVVD [M469T]

— IntAct's records for PubMed 29892012
